System: MS2 coat protein
Experiment: apparent KD of MS2 coat protein; designed switch direction (-1 OFF switch, 1 ON switch): -1; higher = weaker reporter binding
Procedure, shortened: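 Normalised cluster fluorescence was curve-fitted, and each design's median over clusters is its apparent KD. Before this, SNAP-549-labelled MS2 coat protein was titrated from 0.7 or 1.5 nM, doubling to 3 µM, over RNA switches transcribed on Illumina chips by stalled E. coli RNA polymerase. Titrations had no input, 200 uM small-molecule ligand, or an oligonucleotide input, and steps lasted 0.8–1.5 h (lowest) to 10–20 min (highest).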

[1] = Eterna round: R95, input ligand: FMN 200 uM
[2] = Eterna round: R95, input ligand: microRNA oligo, concentration not stated
[3] = Eterna round: R95, input ligand: none
[4] = input ligand: microRNA oligo, concentration not stated

ACGUAACGAGCUUGAUCCAACAUGAGGAUCACCCAUGUGCUCGUCUUAUAACGUACUGUCACGUUAGUGAUAGUGCG [Sensor v3, turn-off variant 1 (MOD of Eli's v1-13 v.5)] (puzzle: Sensor v3, turn-off variant 1)
apparent KD of MS2 coat protein [1]: 0.971 µM
apparent KD of MS2 coat protein [2]: 0.369 µM
apparent KD of MS2 coat protein [3]: 1.19 µM

ACGUGAUAUCUGUCGGUGGACAUGAGGAUCACCCAUGUAAGCUUCUUGCUCGUCUUAUAACCCGGUGACAGACCUUC [Zalaso] (puzzle: Sensor v3, turn-off variant 1)
apparent KD of MS2 coat protein [1]: 0.0428 µM
apparent KD of MS2 coat protein [2]: 0.449 µM
apparent KD of MS2 coat protein [3]: 0.047 µM

ACGUGAUAUCUGUCGGUGGACAUGAGGAUCACCCAUGUAAGCUUUUUGCUCGUCUUAUAACCCGGUGACAGACCUUC [Tixeed] (puzzle: Sensor v3, turn-off variant 1)
apparent KD of MS2 coat protein [1]: 0.0337 µM
apparent KD of MS2 coat protein [2]: 0.268 µM
apparent KD of MS2 coat protein [3]: 0.0373 µM

ACUAAAUAAACAAGCAAUAAUCCAUCGUCUUAUACUAAAACAUGAGGAUCACCCAUGUAACAGGUGGUGUUAAAUAA [JR_Sensorv2_tov2_Sub1202] (Eterna round: R96, puzzle: Sensor v2, turn-off variant 2)
apparent KD of MS2 coat protein (input ligand: FMN 200 uM): 0.0154 µM
apparent KD of MS2 coat protein [4]: 0.0406 µM
apparent KD of MS2 coat protein (input ligand: none): 0.0191 µM

ACUAGAUGAGGAUAUGCAUGUUUUCAUGUUCUUCUAGAUUAACAUGAGGAUCACCCAUGUAGAAGGCGUCUUAU [Exclusion 2 - 30] (puzzle: Exclusion 2)
apparent KD of MS2 coat protein [2]: 0.0184 µM

ACUAUCAGAUUCUUAGGGUACAUGAGGAUCACCCAUGUGUACGUCUACGAGGGUUCGAAAAUCAAGCUCCGCUCGUC [Eternabot (L2) Solution 19] (Eterna round: R97, puzzle: Sensor, turn-off variant 1)
apparent KD of MS2 coat protein (input ligand: FMN 200 uM): 0.0992 µM
apparent KD of MS2 coat protein (input ligand: none): 0.0918 µM

ACUCAACAGUAGGAUAUCAUCAAACUAUUGUGAUGAGAAGGACUGACAUGAGGAUCACCCAUGUUAACGUGAAG [Mod of Brourd 3 - Jieux - Exclusion 6] (Eterna round: R97, puzzle: Exclusion 6)
apparent KD of MS2 coat protein (input ligand: FMN 200 uM): 0.0418 µM
apparent KD of MS2 coat protein (input ligand: none): 0.0284 µM

ACUCUUCUUGUUAGGAUAUGCAUCGGGCUUCCGCAGCAGAAGGAACAUGAGGAUCACCCAUGUCAAAUAAAAUC (Eterna round: R97, puzzle: Brourd's mod of Exclusion 4)
apparent KD of MS2 coat protein (input ligand: FMN 200 uM): 0.141 µM
apparent KD of MS2 coat protein (input ligand: none): 0.0208 µM

ACUGAACAUGAGGAUCACCCAUGUAAGGAUAUGCCACACGGGCUACAUAGCCAUCAAAGUAGAAGGUGCUGGGA [Eternabot (Original) Solution 15] (Eterna round: R97, puzzle: Exclusion 1)
apparent KD of MS2 coat protein (input ligand: FMN 200 uM): 0.0203 µM
apparent KD of MS2 coat protein (input ligand: none): 0.0262 µM

ACUGUGACGUAGGAUAUCUCCUAAUUGCGCCGGAGAGAAGGACGUACAUGAGGAUCACCCAUGUGCCCUCGGAA [EX6 B.13] (Eterna round: R97, puzzle: Exclusion 6)
apparent KD of MS2 coat protein (input ligand: FMN 200 uM): 0.3 µM
apparent KD of MS2 coat protein (input ligand: none): 0.0564 µM

ACUUACUGAGGAUAUACAUAGAUUUACAUGAGGAUCACCCAUGUUCCUCUAUGUAUAUAUGUAGAAGGCAGAAGAG [Mat - Exclusion 5 - JL Mod - D35] (Eterna round: R97, puzzle: Exclusion 5)
apparent KD of MS2 coat protein (input ligand: FMN 200 uM): 0.0563 µM
apparent KD of MS2 coat protein (input ligand: none): 0.0216 µM

ACUUACUGAGGAUAUACAUAGAUUUACAUGAGGAUCACCCAUGUUCCUCUAUGUAUAUAUGUAGAAGGCAGAAGAU [Mat - Exclusion 5 - JL Mod - D34] (Eterna round: R97, puzzle: Exclusion 5)
apparent KD of MS2 coat protein (input ligand: FMN 200 uM): 0.0569 µM
apparent KD of MS2 coat protein (input ligand: none): 0.0189 µM

ACUUACUGAGGAUAUACUUAGAUUUACAUGAGGAUCACCCAUGUUCCUCUAUGUAUAUAUGUAGAAGGCAGAAGAA [JL-ex5-4.35 Malcolm mod] (Eterna round: R97, puzzle: Exclusion 5)
apparent KD of MS2 coat protein (input ligand: FMN 200 uM): 0.12 µM
apparent KD of MS2 coat protein (input ligand: none): 0.0237 µM

ACUUGUGUUGAGGAUAUGCGCCGGCUCGCUGGCGCAGAAGGCGGCACAUGAGGAUCACCCAUGUCAGUUCGCGC [salish99_ex6_r004_001] (Eterna round: R97, puzzle: Exclusion 6)
apparent KD of MS2 coat protein (input ligand: FMN 200 uM): 0.138 µM
apparent KD of MS2 coat protein (input ligand: none): 0.0168 µM

AGAAAGCAAGGAUAUACAAGGAAACGACGGAAAGUAGAGAGACAUGAGGAUCACCCAUGUAGAAGGUGCGAGAG [JR_Exclu2_Sub033] (puzzle: Exclusion 2)
apparent KD of MS2 coat protein [1]: 0.0321 µM
apparent KD of MS2 coat protein [2]: 0.0245 µM
apparent KD of MS2 coat protein [3]: 0.0291 µM

AGAAAGGCAGGAUAUCGAUAAUAAAACAUGAGGAUCACCCAUGUGAGGCCGCGUGUAACUCGAGAAGGGCUACACG [Biarquma] (puzzle: Exclusion 5)
apparent KD of MS2 coat protein [1]: 0.0161 µM
apparent KD of MS2 coat protein [2]: 0.0166 µM
apparent KD of MS2 coat protein [3]: 0.0154 µM

AGAAAUGCCCAUGACCGCAAGCUUUUUGCUUGUCUUACCACAUGAGGAUCACCCAUGUGACAUGGGCUCCUGAUAAU [Onlaleti] (puzzle: Sensor v3, turn-off variant 2)
apparent KD of MS2 coat protein [1]: 0.0147 µM
apparent KD of MS2 coat protein [2]: 0.0114 µM
apparent KD of MS2 coat protein [3]: 0.0123 µM

AGAAAUGCCCAUGGCCACAAGCUUUUUGCUUGCCUUACCACAUGAGGAUCACCCAUGUGACAUGGGCUCCUUAUAAU [Teoredale] (puzzle: Sensor v3, turn-off variant 2)
apparent KD of MS2 coat protein [1]: 0.0153 µM
apparent KD of MS2 coat protein [2]: 0.0131 µM
apparent KD of MS2 coat protein [3]: 0.014 µM

AGAAAUGCCCAUGGCCGCAAGCUUCUUGCUUGUCUUACCACAUGAGGAUCACCCAUGUGACAUGGGCUCCUUAUAAU [Xeceenqu] (puzzle: Sensor v3, turn-off variant 2)
apparent KD of MS2 coat protein [1]: 0.0125 µM
apparent KD of MS2 coat protein [2]: 0.00959 µM
apparent KD of MS2 coat protein [3]: 0.0113 µM

AGAAAUUCAAGAGGAUAUCACAUGAGGAUCACCCAUGUAUAGCGCGCUACGCUAGUCCUCGUAUUUGAGAAGGUUUGAUAAAAG [Mat - Exclusion NG 2 - Mod of JL - D77] (Eterna round: R96, puzzle: Exclusion NG 2)
apparent KD of MS2 coat protein (input ligand: FMN 200 uM): 0.0143 µM
apparent KD of MS2 coat protein [4]: 0.0143 µM
apparent KD of MS2 coat protein (input ligand: none): 0.0157 µM

AGAACACAUGAGGAUCACCCAUGUCAGGAUAUCGACUGAACAGCUUCGGCUGUUCAGUCGAGAAGGGACAAUUA [Brourdxlusion 6 - Jieux - Exclusion 1] (Eterna round: R97, puzzle: Exclusion 1)
apparent KD of MS2 coat protein (input ligand: FMN 200 uM): 0.12 µM
apparent KD of MS2 coat protein (input ligand: none): 0.0558 µM

AGAAUGGUACAGGAUAUAGCAUCUAACUGCAUGCUAGAAGGGUAUACAUGAGGAUCACCCAUGUAGUCGUGGAU [Eternabot (L1) Solution 13] (Eterna round: R97, puzzle: Exclusion 6)
apparent KD of MS2 coat protein (input ligand: FMN 200 uM): 0.0552 µM
apparent KD of MS2 coat protein (input ligand: none): 0.0374 µM

AGAAUUGCCCAUGGCCGCAAGCUUUUUGCUUGUCUUACCACAUGAGGAUCACCCAUGUGACAUGGGCUCCUUAUAAU [Anargees] (puzzle: Sensor v3, turn-off variant 2)
apparent KD of MS2 coat protein [1]: 0.0139 µM
apparent KD of MS2 coat protein [2]: 0.00932 µM
apparent KD of MS2 coat protein [3]: 0.0118 µM

AGACAGUCAGGAUAUACAUGAGGAUCACCCAUGUUGAGAUGAGAAAGGGCAGGAAUAGGUAGAAGGGACGAGAG [JR_Exclu3_Sub037] (puzzle: Exclusion 3)
apparent KD of MS2 coat protein [1]: 0.0305 µM
apparent KD of MS2 coat protein [2]: 0.0201 µM
apparent KD of MS2 coat protein [3]: 0.0262 µM

AGACAGUCAGGAUAUACAUGAGGAUCACCCAUGUUGAGAUGUGAAAGGGCGGGAGUAGGUAGAAGGGACGAGAG [JR_Exclu3_Sub039] (puzzle: Exclusion 3)
apparent KD of MS2 coat protein [1]: 0.0273 µM
apparent KD of MS2 coat protein [2]: 0.0267 µM
apparent KD of MS2 coat protein [3]: 0.0375 µM
